Reference: patent publication US20240002533A1 (Merck Sharp & Dohme, published 2024)

T1: human arginase 1, trimeric (full-length untagged hArg1 expressed in E. coli) (human, UniProt P05089 1-322)
T1 sequence: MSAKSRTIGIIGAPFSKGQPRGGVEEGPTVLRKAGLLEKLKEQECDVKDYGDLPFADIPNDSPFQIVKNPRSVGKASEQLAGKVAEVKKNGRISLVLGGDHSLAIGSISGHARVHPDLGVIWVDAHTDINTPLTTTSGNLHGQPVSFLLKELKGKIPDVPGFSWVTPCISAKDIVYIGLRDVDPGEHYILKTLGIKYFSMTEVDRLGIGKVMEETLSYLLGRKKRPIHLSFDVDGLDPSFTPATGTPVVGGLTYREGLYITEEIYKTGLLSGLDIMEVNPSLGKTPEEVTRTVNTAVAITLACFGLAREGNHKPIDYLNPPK


Target: T1, human arginase 1, trimeric (full-length …)
Test: cell-based or functional assay

Binder	IC50 (% inhibition of hArg1 activity, arginine to ornithine by LC-MS)
Antibody mAb1 (chimeric: human VH1 and VL on a mouse IgG2a/kappa constant domain backbone) (antibody) heavy: QVQLVQSGAEVKKPGASVKVSCKASGYTFTNYGISWVRQAPGQGLEWMGWISAYNGNTNYAQKLQGRVTMTTDTSTSTAYMELRSLRSDDTAVYYCAREGAYGYRSPYHNWFDPWGQGTLVTVSSAKTTAPSVYPLAPVCGDTTGSSVTLGCLVKGYFPEPVTLTWNSGSLSSGVHTFPAVLQSDLYTLSSSVTVTSSTWPSQSITCNVAHPASSTKVDKKIEPRGPTIKPCPPCKCPAPNLLGGPSVFIFPPKIKDVLMISLSPIVTCVVVDVSEDDPDVQISWFVNNVEVHTAQTQTHREDYNSTLRVVSALPIQHQDWMSGKEFKCKVNNKDLPAPIERTISKPKGSVRAPQVYVLPPPEEEMTKKQVTLTCMVTDFMPEDIYVEWTNNGKTELNYKNTEPVLDSDGSYFMYSKLRVEKKNWVERNSYSCSVVHEGLHNHHTTKSFSRTPGK light: EIVMTQSPATLSLSPGERATLSCRASQSVSSYLAWYQQKPGQAPRLLIYDASNRATGIPARFSGSGSGTDFTLTISSLEPEDFAVYYCQQHSLLPRTFGGGTKVEIKRTVAAPTVSIFPPSSEQLTSGGASVVCFLNNFYPKDINVKWKIDGSERQNGVLNSWTDQDSKDSTYSMSSTLTLTKDEYERHNSYTCEATHKTSTSPIVKSFNRNEC	3.3 nM
Antibody mAb2 (chimeric: human VH1 and VL on a mouse IgG1 D265A/kappa constant domain backbone) (antibody) heavy: QVQLVQSGAEVKKPGASVKVSCKASGYTFTNYGISWVRQAPGQGLEWMGWISAYNGNTNYAQKLQGRVTMTTDTSTSTAYMELRSLRSDDTAVYYCAREGAYGYRSPYHNWFDPWGQGTLVTVSSAKTTPPSVYPLAPGSAAQTNSMVTLGCLVKGYFPEPVTVTWNSGSLSSGVHTFPAVLQSDLYTLSSSVTVPSSTWPSETVTCNVAHPASSTKVDKKIVPRDCGCKPCICTVPEVSSVFIFPPKPKDVLTITLTPKVTCVVVAISKDDPEVQFSWFVDDVEVHTAQTQPREEQFNSTFRSVSELPIMHQDWLNGKEFKCRVNSAAFPAPIEKTISKTKGRPKAPQVYTIPPPKEQMAKDKVSLTCMITDFFPEDITVEWQWNGQPAENYKNTQPIMDTDGSYFVYSKLNVQKSNWEAGNTFTCSVLHEGLHNHHTEKSLSHSPGK light: EIVMTQSPATLSLSPGERATLSCRASQSVSSYLAWYQQKPGQAPRLLIYDASNRATGIPARFSGSGSGTDFTLTISSLEPEDFAVYYCQQHSLLPRTFGGGTKVEIKRTVAAPTVSIFPPSSEQLTSGGASVVCFLNNFYPKDINVKWKIDGSERQNGVLNSWTDQDSKDSTYSMSSTLTLTKDEYERHNSYTCEATHKTSTSPIVKSFNRNEC	5.3 nM
